From US10900053, “Genome-modified recombinant adeno-associated virus vectors” (University of Florida Research Foundation, Incorporated) come the findings set out here.

Common to all, as to settings: tags: Sigma; label: 32P
Data set [1] has as its target T1, Glucocorticoid receptor (GR) (UniProt P04150 P04150:1-777). Description: EMSA; 20 min 25 C; unlabeled NS does not compete GRE probe (FIG. 3B lane 6). The text has this: (§1) In contrast, both D-sequences in the scAAV2 genomes are present in double-stranded forms. Since GR activation had no effect on the transduction efficiency for ssAAV2 vectors, it was hypothesized that the D-sequence might contain a putative GRE site. Indeed, there exists a sequence, GGTTCCT, at the end of the D-sequence, which shares partial homology to the consensus GRE site, 5'-GGTA-CANNNTGT(T/C)CT-3' (SEQ ID NO: 1) (34). The TGTTCT half-site is an essential core element which has been reported to be sufficient to relay glucocorticoid signaling (34). To experimentally test the possibility whether purified GR protein could bind to the D-sequence, electrophoretic mobility-shift assays (EMSAs) were carried out using double-stranded D-sequence oligonucleotides (D: 5'-[…]-3') (SEQ ID NO: 6). One of the conventional double-stranded GRE sequences (GRE: 5'-[…]-3') (SEQ ID NO: 13), and a non-specific (NS) sequence (NS: 5'-[…]-3') (SEQ ID NO: 10) were used as appropriate positive and negative controls, respectively. Each of the ^32P-labeled oligonucleotide probes was individually incubated with purified GR proteins for 20 minutes at 25° C. and then subjected to EMSAs. […]

Data set [2] addresses T1, Glucocorticoid receptor (GR). Description: EMSA; 20 min 25 C; GR binding to GRE only slightly more efficient than to D by densitometry; unlabeled D competes GRE probe at 2- to 50-fold excess.
Data set [3] shares this target. Description: EMSA; 20 min 25 C, 6% gel 0.5xTBE; competed by 10-fold excess unlabeled GRE and 2- to 50-fold unlabeled D-sequence, not by NS (FIG. 3B).
Source text: as §1

T1 sequence (P04150 whole entry, one chain of several): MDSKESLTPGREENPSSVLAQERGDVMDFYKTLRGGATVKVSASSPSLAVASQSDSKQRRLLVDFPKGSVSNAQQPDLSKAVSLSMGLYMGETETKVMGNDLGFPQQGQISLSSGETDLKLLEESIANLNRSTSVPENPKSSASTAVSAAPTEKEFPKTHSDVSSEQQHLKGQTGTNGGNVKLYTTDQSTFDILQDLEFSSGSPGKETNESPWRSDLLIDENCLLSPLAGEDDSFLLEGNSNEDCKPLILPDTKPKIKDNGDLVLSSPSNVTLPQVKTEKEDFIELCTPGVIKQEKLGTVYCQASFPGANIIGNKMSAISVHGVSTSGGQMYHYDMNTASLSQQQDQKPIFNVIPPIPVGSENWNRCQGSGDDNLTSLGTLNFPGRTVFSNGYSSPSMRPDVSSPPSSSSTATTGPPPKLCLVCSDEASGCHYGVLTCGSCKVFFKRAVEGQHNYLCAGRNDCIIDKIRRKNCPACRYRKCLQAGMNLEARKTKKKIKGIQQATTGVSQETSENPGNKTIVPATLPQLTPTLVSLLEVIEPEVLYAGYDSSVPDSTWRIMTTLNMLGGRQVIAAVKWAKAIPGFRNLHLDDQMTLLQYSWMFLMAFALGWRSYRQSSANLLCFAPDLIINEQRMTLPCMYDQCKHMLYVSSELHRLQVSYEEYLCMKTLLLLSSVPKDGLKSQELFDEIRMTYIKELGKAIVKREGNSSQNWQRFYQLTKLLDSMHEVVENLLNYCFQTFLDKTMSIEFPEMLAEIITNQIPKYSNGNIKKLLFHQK

B1: Non-specific (NS) (dsDNA)
DNA 1: TATTAGATCTGATGGCCGCT
DNA 2: AGCGGCCATCAGATCTAATA
For the molecule B1, the binding result in data set [1] is listed as “no binding”.

B2: AAV2 D-sequence (D) (dsDNA)
DNA 1: CTCCATCACTAGGGGTTCCT
DNA 2: AGGAACCCCTAGTGATGGAG
For the molecule B2, in data set [2], the binding result is on record as “binds”.

B3: GRE (dsDNA)
DNA 1: CTAGGCTGTACAGGATGTTCTGCCTAG
DNA 2: CTAGGCAGAACATCCTGTACAGCCTAG
As to B3, the binding result in data set [3] was “binds”.
